Source: US20090325867A1, “RECEPTOR-SPECIFIC TUMOUR NECROSIS FACTOR-RELATED APOPTOSIS-INDUCING LIGAND (TRAIL) VARIANTS” (MEDICAL RESEARCH COUNCIL, priority 2005, published 2009)

Legend:
[1] = biological target: TRAIL receptor 1 (TRAIL-R1) (Homo sapiens (Human)) (UniProt O00220)
[2] = biological target: TRAIL receptor 1 (TRAIL-R1) (Homo sapiens (Human)) (UniProt O00220); remark: listed apart in the source
Jurkat cells = assay: Caspase-8 and -3 processing by Western blot in Jurkat cells; format: cell-based; settings: FIG. 1D
Procedure: (§1) Cells were also exposed to HGS-ETR1 or HGSETR2 (1 μg ml^−1). C: Ramos or Jurkat cells were pre-incubated for 30 min either alone or with TRAIL-R1 blocking Ab or TRAIL-R2 neutralizing Ab (5 μg ml^−1). […] D: Ramos and Jurkat cells were exposed to wt TRAIL or TRAIL mutants as described above and processing of caspase-3 and -8 determined by Western blot analysis. The asterisk indicates a non-specific band. The lower panel of the blot for detection of the caspase-8 p18 subunit was exposed for twice as long as the upper panel. Apoptosis was assessed by phosphatidylserine externalization and results expressed as the Means±SEM of at least 3 separate determinations.
(§2) Apoptosis was quantified by phosphatidylserine (PS) externalization in the presence of propidium iodide as described (MacFarlane et al., 2002 ibid.). Samples for Western blot analysis were prepared and caspase processing detected as described (Inoue et al., 2004 ibid.; MacFarlane et al., 2005 ibid.).
(§3) To confirm that the mutants were inducing apoptosis, we examined their effects on the processing of caspase-8, the apical caspase in death receptor-induced apoptosis and caspase-3, an effector caspase.

Ramos cells [3] = assay: Apoptosis by phosphatidylserine (PS) externalization in Ramos cells; format: cell-based; settings: 4 h exposure, 500 ng ml^−, Mean ± SEM of at least three determinations
Procedure: as §1
(§4) Ramos, an Epstein-Barr virus-negative Burkitt's lymphoma cell line, and Jurkat T cells (clone E6-1) were cultured as described (MacFarlane et al (2005 Cell Death and Differentiation vol 12 pages 773-782)). Blood samples were obtained from CLL patients, with patient consent and local ethical committee approval and CLL cells purified as described (MacFarlane et al (2002 Oncogene 21, 6809-6818). Cells were incubated for 16 h with depsipeptide (10 nM), provided by Dr. E. Sausville (NCI, USA). Cells were then cultured for a further 6 h with either HGSETR1 or HGS-ETR2, agonistic mAbs to TRAIL-R1 or -R2, respectively (Human Genome Sciences, Rockville, Md.), His-TRAIL-LE (a recombinant TRAIL with low endotoxin—Alexis Corporation, Nottingham, UK), His-TRAIL, a similar form of human recombinant TRAIL (MacFarlane et al (1997 J Biol Chem 272, 25417-25420)) but not further purified to reduce endotoxin levels or a mutant form of His-TRAIL as described (MacFarlane et al., 2005 ibid.). Cell lines were also pre-incubated for 30 min with a TRAIL-R1 blocking Ab and a TRAIL-R2 neutralizing Ab from Alexis and R&D systems, respectively, prior to exposure to TRAIL. Freshly isolated cells from patients with MCL were isolated, purified and incubated with different forms of TRAIL as described above for CLL cells. Samples were either analyzed immediately for apoptosis or stored at −80° C. for subsequent Western blotting. Other methods and reagents were as described (Inoue (2004 Cell Death Differ 11 Suppl 2, S193-206); MacFarlane et al., 2005 ibid).
as §2
Ramos and Jurkat T cells (clone E6-1) were cultured as described (MacFarlane et al, 2005 ibid.). The breast tumour cell line, MCF-7 (clone F43) was cultured as described previously (MacFarlane et al., 2000 J. Cell Biol. 148, 1239-1254). Cells were cultured for either 4 h (Ramos and Jurkat) or 6 h (MCF-7) with His-TRAIL (MacFarlane et al, 1997 J Biol Chem 272, 25417-25420), HGS-ETR1 or HGS-ETR2 (Human Genome Sciences), or a mutant form of His-TRAIL (MacFarlane et al, 2005 ibid.). Samples were analyzed for apoptosis, Western blotting, or TRAIL DISC activation as described (MacFarlane et al, 2005 ibid.; MacFarlane et al. 2002 Oncogene 21, 6809-6818). Mutants of His-TRAIL (residues 95-281) were generated using the Quik-Change site-directed mutagenesis kit (Stratagene, Calif.), confirmed by DNA sequencing, expressed in E. coli and purified as described (MacFarlane et al, 1997 ibid.). For siRNA targeting of TRAIL-R1/-R2, MCF-7 cells were seeded into six-well plates immediately prior to effectene-mediated RNAi transfection with either a negative control siRNA (30 nM, Ambion, #4611), or preannealed siRNA oligonucleotides for TRAIL-R1 or TRAIL-R2 (30 nM, Ambion), with the sequence and validity described (Ren et al, 2004 Mol. Biol. Cell vol 15 pp 5064-5074). After 40 h of transfection the cells were collected and total TRAIL-R1 or TRAIL-R2 levels assessed. […]

[4] = test system: TRAIL DISC in Ramos cells; assay: DISC analysis with biotinylated TRAIL in Ramos cells; format: cell-based; settings: biotinylated ligand 500 ng ml^−1, 30 min
Procedure: (§5) After exposure of the cells for 30 min, DISC complexes were isolated and analyzed for the indicated proteins by Western blotting. To provide an unstimulated receptor control (u/s), biotinylated wt or mutant TRAIL was added to lysate from untreated cells. C: Freshly isolated cells from patients with CLL were incubated for 16 h either alone or in the presence of depsipeptide (10 nM). […] The different symbols used indicate data from six individual patients and the solid line indicates the Mean.
(§6) Ramos or Jurkat cells (5×10^7 cells per treatment) were exposed to biotin-tagged recombinant His-TRAIL (biotinylated TRAIL) or one of its mutant forms (500 ng ml^−1) for 30 min and then DISC formation assessed as described previously (MacFarlane et al., 2002 ibid.).

primary CLL cells = assay: Apoptosis in freshly isolated CLL cells after depsipeptide; format: cell-based, human; settings: depsipeptide 10 nM 16 h, then 6 h ligand or antibody, FIG. 2C
Procedure: as §5, §4, §2

Ramos cells [5] = assay: Caspase-8 and -3 processing by Western blot in Ramos cells; format: cell-based; settings: FIG. 1D
Procedure: as §1, §2, §3

primary MCL cells = assay: Apoptosis in freshly isolated primary MCL cells with or without depsipeptide pre-treatment; format: cell-based, human; settings: no depsipeptide, spontaneous apoptosis 23.4±2.9%
Procedure: Cell lines were also pre-incubated for 30 min with a TRAIL-R1 blocking Ab and a TRAIL-R2 neutralizing Ab from Alexis and R&D systems, respectively, prior to exposure to TRAIL. Freshly isolated cells from patients with MCL were isolated, purified and incubated with different forms of TRAIL as described above for CLL cells. Samples were either analyzed immediately for apoptosis or stored at −80° C. for subsequent Western blotting. Other methods and reagents were as described (Inoue (2004 Cell Death Differ 11 Suppl 2, S193-206); MacFarlane et al., 2005 ibid).
as §2
We also obtained three samples from patients with mantle cell lymphoma (MCL), an incurable and aggressive disease that accounts for ˜6% of all non-Hodgkin's lymphoma. There are no standard treatments for MCL and the prognosis is very poor particularly for the blastoid variant. MCL cells were isolated and exposed to the different forms of TRAIL after pre-treatment for 16 h with depsipeptide (5 nM).

[6] = test system: TRAIL DISC in Jurkat cells; assay: DISC analysis with biotinylated TRAIL in Jurkat cells; format: cell-based; settings: biotinylated ligand 500 ng ml^−1, 30 min
Procedure: as §5, §6

HGS-ETR1 (antibody)
apoptosis of primary MCL cells after depsipeptide (5 nM, 16 h) [1]: 68.2%

His-TRAIL (wild type, residues 95-281) (from UniProt P50591) (ligand)
% PS+ cells (apoptosis by phosphatidylserine externalization), Ramos cells, 4 h, 500 ng/ml [2]: 41.8 % PS+ cells
apoptosis of primary MCL cells without depsipeptide [1]: 25.5%

B1: wild type: His-tagged human recombinant TRAIL residues 95-281, wild type sequence (protein)
chain: TSEETISTVQEKQQNISPLVRERGPQRVAAHITGTRGRSNTLSSPNSKNEKALGRKINSWESSRSGHSFLSNLHLRNGELVIHEKGFYYIYSQTYFRFQEEIKENTKNDKQMVQYIYKYTSYPDPILLMKSARNSCWSKDAEYGLYSIYQGGIFELKENDRIFVSVTNEHLIDMDHEASFFGAFLVG
modifications: biotin (site not stated) in the DISC analysis only; not biotinylated in the apoptosis assays
processing of caspases-8 and -3 (Jurkat cells): most potent
% PS+ cells, Ramos (Ramos cells [3]): 41.8 ± 5.2%
DISC formation: receptor bound, FADD and caspase-8 recruitment [4]: bound both TRAIL-R1 and -R2, and recruited FADD and caspase-8
sensitization of CLL cells to induced apoptosis by depsipeptide (primary CLL cells): sensitized CLL cells
processing of caspase-8 and caspase-3 (Ramos cells [5]): induced the processing
apoptosis, ligand alone (primary MCL cells): 25.5±3.8%
DISC formation: receptor bound, FADD and caspase-8 recruitment [6]: bound TRAIL-R2 extensively in the DISC
